According to patent US20160272953A1, “Activated Sugars” (ZuChem, Inc., priority 2010, published 2016):

Assay: Sugar kinase activity of cell lysates with D-galactose at 37, 45, 55° C. (DNS assay)
Assay type: biochemical
Details: 8 mM D-galactose; 37, 45 and 55° C.
Source text: The formation of a phosphorylated sugar by kinase activity can be monitored by a number of methods. One method for detecting sugar-1-kinase activity is the 3,5-dinitrosalicylic acid (DNS) assay. This assay exploits the fact that reducing sugars can reduce compounds such as 3,5-dinitrosalicylic acid, which undergo a color change upon reduction. This assay can be used for sugar-1-kinases since the product of their reaction (sugar-1-phosphate) no longer has the ability to reduce DNS. Therefore, when the reaction is complete no color change occurs when incubated with DNS and the result is a yellow color. However, when reducing sugar remains, the result is reduction of DNS and red/brown color. This assay is furthermore concentration dependent providing a linear color change from 0.1 to 10 mM reducing sugar.
The sugar kinase proteins were expressed recombinantly in E. coli induced with 0.5mM IPTG and partially purified cell lysates were then assayed (100 μL) with 400 μmM ATP, 3.5 mM Mg^2+, and 8 mM D-galactose at three different temperatures, 37, 45, and 55° C. […] A negative control was treated similarly and consisted of the host strain with empty plasmid.

| Molecule | activity in partially purified cell extract |
| --- | --- |
| S. thermophilus: Streptococcus thermophilus wild-type sugar-1-kinase (SEQ ID NO:8) (protein, listed as Streptococcus thermophilus) MNTSQLREKFKEVFGVEADHTFFSPGRINLIGEHTDYNGGNVLPVAITLGTYGAARKRDDKVLRFFSANFEEKGIIEVPLENLRFEKEHNWTNYPKGVLHFLQEAGHTIDSGMDIYIYGNIPNGSGLSSSSSLELLIGVIVEKLYDIKLERLDLVKIGKQTENDFIGVNSGIMDQFAIGMGADQCAIYLDTNTLKYDLVPLDLKDNVVVIMNTNKRRELADSKYNERRAECETAVSELQEKLDIQTLGELDFLTFDAYSYLIKDENRIKRARHVVLENQRTLQARKALEAGDLEGFGRLMNASHVSLEYDYEVTGLELDTLAHTAWEQEGVLGARMTGAGFGGCAIALVNKDKVEDFKKAVGQRYEEVVGYAPSFYIAEVTGGSRVLD | most activity |
| P. furiousus: Pyrococcus furiosus wild-type sugar-1-kinase (SEQ ID NO:10) (protein, listed as Pyrococcus furiosus) MSKITVKSPGRVNLIGEHTDYTYGYVMPMAIDLYTIITAEKYDKVQLYSEHFNEEKTFTLDNLTKEGSWIDYVKGVLWVLIQEGYKIGGLKGKITGDLPLGAGLSSSASFEVGILEVLNQLYNLNIDPLKKALLAKKAENEFVGVPCGILDQFAVVFGKKDNVIFLDTQTLQYEYIPFPKDVSVLVFYTGVKRELASSEYAERKRIAEESLRILGKESSKEVTEKDLGKLPPLHRKFFSYIVRENARVLEVRDALKEGDIEKVGKILTTAHWDLAENYRVSCEELDFFVKKAMELGAYGARLTGAGFGGSAIALVDKDKAKTIGDAILREYLAKFSWKAKYFVVKPSDGVGV | more active at temperatures higher than 37 °C |
| T. thermophilus: Thermus thermophilus wild-type sugar-1-kinase (SEQ ID NO:9) (protein, listed as Thermus thermophilus) MGFQEVYGVLPQASAQAPGRVNLLGEHTDYQEGYVLPTPIPYFTRVEAAPLEGAVEAFSENLGELRARPLSSPPQGDFLDYLLGVVRALREAGHEVAGARFYVRSDLPMGAGLSSSAALEVAALRALRTLYRLPLSDLEVARLAQKAEVEYVGVRCGIMDQMAASLGQPGQALFLDTRTLAYENLPLPPGVRVAVLDLGLGRRLAEAGYNRRRQEAEEAAKRLGVRSLRDVADLCLVESLPSPLDRRARHVVSENLRVLRGVEALRRGDARAFGELMTQSHRSLAQDYEVNLPELDALVEEALRAGAYGAKLTGAGFGGAVVALVAESRFPAFREALARRFPDLKVL | more active at temperatures higher than 37 °C |
